Article PMC5125619 (Nature, 2016)

Legend:
[1] = target: FAM-labelled RBBP5 peptide (residues 330–363) mixed with ASH2L(SPRY) (human) (UniProt Q15291); test: fluorescence polarisation
[2] = target: MLL3 SET domain (human, UniProt Q8NEZ4 4757-4911); test: crystal structure
Chain of MLL3 SET domain (human, UniProt Q8NEZ4 4757-4911) (Q8NEZ4 4757-4911): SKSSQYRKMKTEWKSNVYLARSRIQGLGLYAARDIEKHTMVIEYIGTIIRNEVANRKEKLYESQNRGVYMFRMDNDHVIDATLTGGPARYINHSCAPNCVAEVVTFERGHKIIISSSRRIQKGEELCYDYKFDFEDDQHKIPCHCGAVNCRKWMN

Chain of MLL1 SET domain (Q03164 3829-3945): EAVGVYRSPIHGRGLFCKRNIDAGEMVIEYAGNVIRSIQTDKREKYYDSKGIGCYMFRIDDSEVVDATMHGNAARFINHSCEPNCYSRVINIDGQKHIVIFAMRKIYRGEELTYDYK
Chain of MLL3 SET domain (from UniProt Q8NEZ4 4757-4911) (domain or fragment) (Q8NEZ4 4757-4911): as the sequence (Q8NEZ4 4757-4911) above

Molecule | Kd [1] [nM] | binding result [2]
MLL3 SET domain (from UniProt Q8NEZ4 4757-4911) (domain or fragment) | 100 | 
MLL1 SET domain (from UniProt Q03164 3829-3945) (domain or fragment) | > 100000 | 
ARTKQTARK [H3 peptide (H3 residues 1–9)] |  | binds
